Test results from US20050244819.

Test system: beta-Gal^PR, engineered E. coli beta-galactosidase with the HIV p6/PR cleavage site decapeptide inse [β-galactosidase: P00722]

TF-PR^D25N, HIV protease precursor with the D25N mutation at the catalytic residue Asp25
β-galactosidase activity: 0.178 µmol/min/mg
